The test has as its target CD40 on murine bone cells (MLO-Y4 osteocyte cell line, primary osteoblasts, MC3T3, OCT-1 and 2T3 osteoblast cell lines) (mouse) (UniProt P27512). As to the kind of experiment: cell-based or functional assay.

Data on one substance can be found in US20030099644A1.

Chain of UniProt P27512 (P27512 20-289): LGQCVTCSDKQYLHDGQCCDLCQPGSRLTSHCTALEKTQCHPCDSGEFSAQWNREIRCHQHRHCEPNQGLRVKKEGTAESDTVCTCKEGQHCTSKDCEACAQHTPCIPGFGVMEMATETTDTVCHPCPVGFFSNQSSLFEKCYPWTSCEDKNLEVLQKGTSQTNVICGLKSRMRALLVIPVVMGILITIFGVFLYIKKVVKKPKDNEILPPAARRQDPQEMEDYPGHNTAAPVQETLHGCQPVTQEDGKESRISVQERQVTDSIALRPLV

Regarding Soluble, trimeric CD40L (ligand), the percent positive cells, Annexin V (MLO-Y4 cells, CD40L alone) (percent positive cells) was found to be 11.5; the percent positive cells, Annexin V (MLO-Y4 cells, Dex + CD40L) (percent positive cells) was 13.7; the percent positive cells, Annexin V (MLO-Y4 cells, TNF + CD40L) (percent positive cells) is 13.9; the percent positive cells, GFP (MLO-Y4 cells, CD40L alone) (percent positive cells) was 8.7. The percent positive cells, GFP (MLO-Y4 cells, Dex + CD40L) (percent positive cells) is 9.9; the percent positive cells, GFP (MLO-Y4 cells, Etoposide + CD40L) (percent positive cells) stood at 8.4; the percent positive cells, GFP (MLO-Y4 cells, TNF + CD40L) (percent positive cells) came out at 15; the percent positive cells, Trypan Blue (MLO-Y4 cells, CD40L alone) (percent positive cells) was determined as 7.2. Besides, the percent positive cells, Trypan Blue (MLO-Y4 cells, Dex + CD40L) (percent positive cells) is 7.8; the percent positive cells, Trypan Blue (MLO-Y4 cells, Etoposide + CD40L) (percent positive cells) worked out at 7.9; the percent positive cells, Trypan Blue (MLO-Y4 cells, TNF + CD40L) (percent positive cells) amounted to 12.9.
